Measured values reported in doi:10.1101/2024.07.31.606000 (bioRxiv, 2024).

Columns and labels:
complement factor H = complement factor H (UniProt P08603 19-1231); test: SPR
complement C8 = complement C8 (UniProt P07357 31-584; P07358 55-591; P07360 21-202); test: SPR
complement C8, sequence (P07357 31-584, chain 1 of 3): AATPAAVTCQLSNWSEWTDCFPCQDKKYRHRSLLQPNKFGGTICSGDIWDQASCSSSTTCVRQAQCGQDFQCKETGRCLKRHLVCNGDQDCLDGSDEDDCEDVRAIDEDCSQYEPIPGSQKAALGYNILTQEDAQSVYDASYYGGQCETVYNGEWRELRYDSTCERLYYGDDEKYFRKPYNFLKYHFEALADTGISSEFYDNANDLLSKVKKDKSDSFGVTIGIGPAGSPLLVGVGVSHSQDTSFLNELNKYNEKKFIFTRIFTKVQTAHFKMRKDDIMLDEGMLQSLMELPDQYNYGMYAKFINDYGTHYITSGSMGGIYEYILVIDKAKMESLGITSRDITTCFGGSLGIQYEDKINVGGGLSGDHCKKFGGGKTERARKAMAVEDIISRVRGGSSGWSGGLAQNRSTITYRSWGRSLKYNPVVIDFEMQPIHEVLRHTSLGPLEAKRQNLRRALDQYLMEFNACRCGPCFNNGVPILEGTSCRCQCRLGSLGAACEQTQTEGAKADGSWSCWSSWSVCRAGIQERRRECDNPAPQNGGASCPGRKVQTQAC
complement C8, sequence (P07358 55-591, chain 2 of 3): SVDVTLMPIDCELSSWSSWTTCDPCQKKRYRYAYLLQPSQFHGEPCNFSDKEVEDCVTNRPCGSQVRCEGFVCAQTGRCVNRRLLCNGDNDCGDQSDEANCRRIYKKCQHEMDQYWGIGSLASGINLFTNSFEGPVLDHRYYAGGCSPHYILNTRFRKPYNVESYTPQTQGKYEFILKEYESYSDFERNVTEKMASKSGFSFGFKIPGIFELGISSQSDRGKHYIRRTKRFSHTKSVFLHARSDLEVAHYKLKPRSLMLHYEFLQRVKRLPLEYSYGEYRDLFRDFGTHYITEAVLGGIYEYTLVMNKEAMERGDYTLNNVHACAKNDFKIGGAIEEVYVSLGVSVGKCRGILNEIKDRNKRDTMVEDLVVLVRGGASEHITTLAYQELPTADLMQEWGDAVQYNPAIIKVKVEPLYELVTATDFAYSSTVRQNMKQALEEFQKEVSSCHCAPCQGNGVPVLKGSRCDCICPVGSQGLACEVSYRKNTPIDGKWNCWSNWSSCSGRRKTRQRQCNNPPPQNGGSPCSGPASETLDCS
complement C8, sequence (P07360 21-202, chain 3 of 3): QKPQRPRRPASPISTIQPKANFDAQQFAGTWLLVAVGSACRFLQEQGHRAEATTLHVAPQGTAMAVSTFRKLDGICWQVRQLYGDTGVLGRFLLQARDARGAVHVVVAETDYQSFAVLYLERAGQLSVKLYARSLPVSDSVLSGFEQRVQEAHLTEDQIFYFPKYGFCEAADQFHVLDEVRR

complement factor H, sequence (P08603 19-1231): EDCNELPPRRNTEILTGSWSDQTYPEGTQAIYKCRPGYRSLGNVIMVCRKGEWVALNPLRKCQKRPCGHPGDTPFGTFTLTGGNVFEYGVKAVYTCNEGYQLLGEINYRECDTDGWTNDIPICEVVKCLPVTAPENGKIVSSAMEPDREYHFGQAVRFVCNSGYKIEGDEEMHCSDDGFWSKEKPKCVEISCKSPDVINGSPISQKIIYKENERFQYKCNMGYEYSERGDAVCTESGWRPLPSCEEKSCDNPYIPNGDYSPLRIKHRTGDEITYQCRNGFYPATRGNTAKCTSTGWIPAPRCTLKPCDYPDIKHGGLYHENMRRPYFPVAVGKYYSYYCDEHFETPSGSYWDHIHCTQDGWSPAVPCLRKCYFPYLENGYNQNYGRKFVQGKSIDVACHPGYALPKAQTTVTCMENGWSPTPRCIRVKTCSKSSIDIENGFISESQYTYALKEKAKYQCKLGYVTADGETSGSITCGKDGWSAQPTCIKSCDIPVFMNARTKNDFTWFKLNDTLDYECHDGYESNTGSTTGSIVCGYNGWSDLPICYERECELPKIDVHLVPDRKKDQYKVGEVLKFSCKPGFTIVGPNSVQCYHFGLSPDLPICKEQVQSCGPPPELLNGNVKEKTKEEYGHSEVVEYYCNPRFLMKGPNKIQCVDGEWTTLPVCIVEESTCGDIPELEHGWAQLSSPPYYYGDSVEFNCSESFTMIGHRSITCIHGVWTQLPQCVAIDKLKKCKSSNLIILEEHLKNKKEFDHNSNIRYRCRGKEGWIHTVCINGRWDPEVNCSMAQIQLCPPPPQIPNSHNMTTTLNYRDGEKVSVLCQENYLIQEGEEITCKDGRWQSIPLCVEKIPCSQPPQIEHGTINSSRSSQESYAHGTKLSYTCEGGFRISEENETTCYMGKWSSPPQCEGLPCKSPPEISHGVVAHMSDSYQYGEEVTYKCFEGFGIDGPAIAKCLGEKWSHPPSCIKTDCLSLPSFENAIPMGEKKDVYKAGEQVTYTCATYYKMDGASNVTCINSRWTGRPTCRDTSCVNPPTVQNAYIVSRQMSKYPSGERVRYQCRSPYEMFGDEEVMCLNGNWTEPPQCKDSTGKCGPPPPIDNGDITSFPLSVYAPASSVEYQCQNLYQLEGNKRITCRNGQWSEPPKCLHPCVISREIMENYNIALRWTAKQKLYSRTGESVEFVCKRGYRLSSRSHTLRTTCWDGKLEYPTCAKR

- Kd (complement factor H): 203 nM
- Kd (complement C8): 311 nM
B1: recombinant full-length thrombospondin-1 (natural protein)
chain: not shown
